In patent publication US20250186597A1 (BRIGHT PEAK THERAPEUTICS, published 2025):
Blank lines part the entries; values can stand above or below the binder they belong to.

Columns and labels:
[1] = biological target: T1, Biotinylated Recombinant Human PD-1/CD279-Fc Chimera, carrier-free, Biolegend #789406 (human, UniProt Q15116 25-167, biotinylated (site not stated)); assay: ELISA; antibody coated, biotinylated human PD-1-Fc titrated
T1 construct: Bought reagent; also called recombinant biotinylated human PD-1; human PD1/CD279 ligand; Fc part of the bought chimera not given; not described

[2] = biological target: T2, His-tagged human PD1, R&D #8986-PD (human, UniProt Q15116 25-167); assay: BLI (Octet), antibody on AHC sensor, His-tagged human PD1 as analyte
T2 construct: Bought reagent; not shown: His tag

[3] = biological target: T1, Biotinylated Recombinant Human …; assay: ELISA; antibody coated on the plate, biotinylated human PD-1-Fc titrated in solution (x axis), streptavidin-HRP, signal at 450 nm
[4] = biological target: T3, recombinant Human Fc gamma RI/CD64 Protein (R&D systems, 1257-FC-050, CF) (human, UniProt P12314 16-288); assay: ELISA; antibody coated, Fc gamma receptor titrated
T3 construct: also called FcγRI/CD64; human Fc gamma receptor I (CD64)

[5] = biological target: T4, recombinant Human Fc gamma RIIA/CD32a (H167) Protein (R&D systems, 9595-CD-050, CF) (human, UniProt P12318 36-218); assay: ELISA; antibody coated, Fc gamma receptor titrated
T4 construct: also called FcγRIIa/CD32a; human Fc gamma receptors IIa
T4 sequence (looked up): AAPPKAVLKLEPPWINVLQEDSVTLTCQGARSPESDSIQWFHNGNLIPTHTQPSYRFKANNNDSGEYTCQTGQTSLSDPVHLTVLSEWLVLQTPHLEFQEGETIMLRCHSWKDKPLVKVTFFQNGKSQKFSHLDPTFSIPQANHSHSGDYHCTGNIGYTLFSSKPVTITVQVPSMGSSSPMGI

[6] = biological target: T5, recombinant Human Fc gamma RIIIA/CD16a Protein (R&D systems, 4325-FC-050; CF) (human, UniProt P08637 17-208, limits assumed); assay: ELISA; antibody coated, Fc gamma receptor titrated
T5 construct: also called FcγRIIIa/CD16; human Fc gamma receptor IIIa (CD16)

[7] = biological target: T6, recombinant Human Fc gamma RIIB/CD32b Avi-tag Protein (R&D systems, AVI1875-050, CF) (human, UniProt P31994 46-217); assay: ELISA; antibody coated, Fc gamma receptor titrated
T6 construct: also called FcγRIIb/CD32b
T6 sequence (looked up): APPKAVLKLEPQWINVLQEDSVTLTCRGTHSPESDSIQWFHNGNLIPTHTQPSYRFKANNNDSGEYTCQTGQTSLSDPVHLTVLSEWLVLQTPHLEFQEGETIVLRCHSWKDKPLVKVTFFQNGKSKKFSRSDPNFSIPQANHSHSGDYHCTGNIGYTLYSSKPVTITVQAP

[8] = biological target: T7, recombinant biotinylated human FcRn (human, UniProt P55899 24-297; P61769 21-119, limits assumed, biotinylated (site not stated)); assay: AlphaLISA competition at pH 6; competitor: human IgG on acceptor beads
T7 construct: also called human neonatal Fc receptor (FcRn); human Fc neonatal receptor

Kd [1]: 0.0407 nM | Kd [2]: 23.5 nM | koff [2]: 0.0077 s⁻¹ | kon [2]: 342000 M⁻¹ s⁻¹ | EC50 (read off the curve) [3]: ~0.06 nM
B1: LZM-009 (antibody, V domains shown)
VH: QVQLVQSGAEVKKPGASVKVSCKASGYTFTSYYMYWVRQAPGQGLEWMGGVNPSNGGTNFNEKFKSRVTITADKSTSTAYMELSSLRSEDTAVYYCARRDYRYDMGFDYWGQGTTVTVSS
VL: EIVLTQSPATLSLSPGERATISCRASKGVSTSGYSYLHWYQQKPGQAPRLLIYLASYLESGVPARFSGSGSGTDFTLTISSLEPEDFATYYCQHSRELPLTFGTGTKVEIK
notes: full antibody with an Fc region (K248, EU numbering); also called anti-PD-1 antibody LZM-009

Kd [4]: 2.34 nM | Kd [5]: 160 nM | Kd [6]: 234 nM | Kd [7]: 233 nM | Kd [8]: 8.31 nM
B2: Durvalumab/Imfinzi (antibody, human IgG1, kappa)
heavy: EVQLVESGGGLVQPGGSLRLSCAASGFTFSRYWMSWVRQAPGKGLEWVANIKQDGSEKYYVDSVKGRFTISRDNAKNSLYLQMNSLRAEDTAVYYCAREGGWFGELAFDYWGQGTLVTVSSASTKGPSVFPLAPSSKSTSGGTAALGCLVKDYFPEPVTVSWNSGALTSGVHTFPAVLQSSGLYSLSSVVTVPSSSLGTQTYICNVNHKPSNTKVDKRVEPKSCDKTHTCPPCPAPEFEGGPSVFLFPPKPKDTLMISRTPEVTCVVVDVSHEDPEVKFNWYVDGVEVHNAKTKPREEQYNSTYRVVSVLTVLHQDWLNGKEYKCKVSNKALPASIEKTISKAKGQPREPQVYTLPPSREEMTKNQVSLTCLVKGFYPSDIAVEWESNGQPENNYKTTPPVLDSDGSFFLYSKLTVDKSRWQQGNVFSCSVMHEALHNHYTQKSLSLSPGK
light: EIVLTQSPGTLSLSPGERATLSCRASQRVSSSYLAWYQQKPGQAPRLLIYDASSRATGIPDRFSGSGSGTDFTLTISRLEPEDFAVYYCQQYGSLPWTFGQGTKVEIKRTVAAPSVFIFPPSDEQLKSGTASVVCLLNNFYPREAKVQWKVDNALQSGNSQESVTEQDSKDSTYSLSSTLTLSKADYEKHKVYACEVTHQGLSSPVTKSFNRGEC
notes: also called MEDI-4736
